# Data reported in patent US20240024426A1, “HYPOTENSIVE PHARMACEUTICAL COMPOSITION COMPRISING TRIPLE ACTIVATOR HAVING ACTIVITY FOR ALL OF GLUCAGON, GLP-1, AND GIP RECEPTORS” (HANMI PHARM. CO., LTD., priority 2020, published 2024).
# Bridges are numbered along the chain shown (N, C = ends). Where no end group is shown, it is not given here. [ ]: non-standard residue; d: D form. Aib = CC(C)(N)C(=O)O
# Biological target: human GCG receptor (human, UniProt P47871 26-477)
# Test: cell-based or functional assay
# Sequence of human GCG receptor (P47871 26-477): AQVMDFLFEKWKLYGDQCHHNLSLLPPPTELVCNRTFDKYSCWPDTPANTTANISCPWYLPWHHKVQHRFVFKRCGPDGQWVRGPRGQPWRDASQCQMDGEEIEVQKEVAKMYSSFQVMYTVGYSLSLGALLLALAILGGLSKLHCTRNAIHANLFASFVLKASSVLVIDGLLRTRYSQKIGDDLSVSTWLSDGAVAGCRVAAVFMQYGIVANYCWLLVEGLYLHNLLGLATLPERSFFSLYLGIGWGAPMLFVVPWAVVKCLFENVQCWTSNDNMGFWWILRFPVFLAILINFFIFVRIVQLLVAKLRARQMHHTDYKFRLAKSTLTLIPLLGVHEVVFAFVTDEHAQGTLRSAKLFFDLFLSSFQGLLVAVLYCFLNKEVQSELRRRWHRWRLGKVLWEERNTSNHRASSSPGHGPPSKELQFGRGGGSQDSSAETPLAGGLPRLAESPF
row,Binder,In vitro activity compared with native peptide (%) vs. Glucagon [%]
1,H[Aib]QGTFTSDVSSYLLGQQQKEFIAWLVKGC [Triple agonist of SEQ ID NO: 4],< 0.1
2,H[Aib]QGTFTSDYSKYLDEKRQKEFVNWLLAQKC (bridge 16-20) [Triple agonist of SEQ ID NO: 34],0.92
3,H[Aib]QGTFTSDYSIAMDEIHQKDFVNWLLNTKC (bridge 16-20) [Triple agonist of SEQ ID NO: 35],< 0.1
4,H[Aib]QGTFTSDYSKYLCEKRQKEFVQWLLNGGPSSGAPPPSG (bridge 16-20) [Triple agonist of SEQ ID NO: 36],0.39
5,H[Aib]QGTFTSDYSKYLDECRQKEFVQWLLNGGPSSGAPPPSG (bridge 16-20) [Triple agonist of SEQ ID NO: 37],6.21
6,H[Aib]QGTFTSDYSKYLDGQHAQCFVAWLLAGGGPSSGAPPPS [Triple agonist of SEQ ID NO: 39],0.53
7,H[Aib]QGTFTSDKSKYLDERACQDFVQWLLDGGPSSGAPPPS [Triple agonist of SEQ ID NO: 40],< 0.1
8,H[Aib]QGTFTSDKSKYLDECAAQDFVQWLLDGGPSSGAPPPS [Triple agonist of SEQ ID NO: 41],< 0.1
9,Y[Aib]QGTFTSDYSKYLDEKRAKEFVQWLLDHHPSSGQPPPSC (bridge 16-20) [Triple agonist of SEQ ID NO: 42],206
10,Y[Aib]QGTFTSDYSKYLDEKRAKEFVQWLLDHHCSSGQPPPS (bridge 16-20) [Triple agonist of SEQ ID NO: 43],88.4
11,HGQGTFTSDCSKQLDGQAAQEFVAWLLAGGPSSGAPPPS [Triple agonist of SEQ ID NO: 44],< 0.1
12,H[Aib]QGTFTSDVSSYLLGQQQKEFIAWLVKGGGPSSGAPPPSC [Triple agonist of SEQ ID NO: 5],< 0.1
13,HGQGTFTSDCSKYMDGQAAQDFVAWLLAGGPSSGAPPPS [Triple agonist of SEQ ID NO: 45],< 0.1
14,HGQGTFTSDCSKYLDEQHAQEFVAWLLAGGPSSGAPPPS [Triple agonist of SEQ ID NO: 46],< 0.1
15,HGQGTFTSDCSKYLDGQRAQEFVAWLLAGGPSSGAPPPS [Triple agonist of SEQ ID NO: 47],< 0.1

# Biological target: T1, human GIP receptor (human, UniProt P48546 22-466)
# T1 sequence (looked up): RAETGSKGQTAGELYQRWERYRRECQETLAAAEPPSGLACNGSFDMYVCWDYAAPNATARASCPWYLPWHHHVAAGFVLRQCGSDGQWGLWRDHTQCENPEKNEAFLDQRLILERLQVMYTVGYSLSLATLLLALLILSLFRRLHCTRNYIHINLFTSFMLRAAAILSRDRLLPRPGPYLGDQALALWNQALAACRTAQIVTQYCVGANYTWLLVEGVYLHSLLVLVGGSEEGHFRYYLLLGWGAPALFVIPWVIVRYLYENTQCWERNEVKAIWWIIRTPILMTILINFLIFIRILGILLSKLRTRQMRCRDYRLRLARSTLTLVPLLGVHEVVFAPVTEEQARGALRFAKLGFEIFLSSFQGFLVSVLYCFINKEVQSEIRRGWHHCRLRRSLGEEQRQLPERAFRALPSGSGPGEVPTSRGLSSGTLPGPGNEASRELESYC
# Test: cell-based or functional assay
row,Binder,In vitro activity compared with native peptide (%) vs. GIP [%]
1,H[Aib]QGTFTSDVSSYLLGQQQKEFIAWLVKGC [Triple agonist of SEQ ID NO: 4],< 0.1
2,H[Aib]QGTFTSDYSKYLDEKRQKEFVNWLLAQKC (bridge 16-20) [Triple agonist of SEQ ID NO: 34],0.6
3,H[Aib]QGTFTSDYSIAMDEIHQKDFVNWLLNTKC (bridge 16-20) [Triple agonist of SEQ ID NO: 35],1.3
4,H[Aib]QGTFTSDYSKYLCEKRQKEFVQWLLNGGPSSGAPPPSG (bridge 16-20) [Triple agonist of SEQ ID NO: 36],0.2
5,H[Aib]QGTFTSDYSKYLDECRQKEFVQWLLNGGPSSGAPPPSG (bridge 16-20) [Triple agonist of SEQ ID NO: 37],2.2
6,H[Aib]QGTFTSDYSKYLDGQHAQCFVAWLLAGGGPSSGAPPPS [Triple agonist of SEQ ID NO: 39],< 0.1
7,H[Aib]QGTFTSDKSKYLDERACQDFVQWLLDGGPSSGAPPPS [Triple agonist of SEQ ID NO: 40],< 0.1
8,H[Aib]QGTFTSDKSKYLDECAAQDFVQWLLDGGPSSGAPPPS [Triple agonist of SEQ ID NO: 41],< 0.1
9,Y[Aib]QGTFTSDYSKYLDEKRAKEFVQWLLDHHPSSGQPPPSC (bridge 16-20) [Triple agonist of SEQ ID NO: 42],7.8
10,Y[Aib]QGTFTSDYSKYLDEKRAKEFVQWLLDHHCSSGQPPPS (bridge 16-20) [Triple agonist of SEQ ID NO: 43],3.7
11,HGQGTFTSDCSKQLDGQAAQEFVAWLLAGGPSSGAPPPS [Triple agonist of SEQ ID NO: 44],< 0.1
12,H[Aib]QGTFTSDVSSYLLGQQQKEFIAWLVKGGGPSSGAPPPSC [Triple agonist of SEQ ID NO: 5],< 0.1
13,HGQGTFTSDCSKYMDGQAAQDFVAWLLAGGPSSGAPPPS [Triple agonist of SEQ ID NO: 45],< 0.1
14,HGQGTFTSDCSKYLDEQHAQEFVAWLLAGGPSSGAPPPS [Triple agonist of SEQ ID NO: 46],< 0.1
15,HGQGTFTSDCSKYLDGQRAQEFVAWLLAGGPSSGAPPPS [Triple agonist of SEQ ID NO: 47],< 0.1

# Biological target: human GLP-1 receptor (human, UniProt P43220 24-463)
# Test: cell-based or functional assay
row,Binder,In vitro activity compared with native peptide (%) vs. GLP-1 [%]
1,H[Aib]QGTFTSDVSSYLLGQQQKEFIAWLVKGC [Triple agonist of SEQ ID NO: 4],8.5
2,H[Aib]QGTFTSDYSKYLDEKRQKEFVNWLLAQKC (bridge 16-20) [Triple agonist of SEQ ID NO: 34],19.1
3,H[Aib]QGTFTSDYSIAMDEIHQKDFVNWLLNTKC (bridge 16-20) [Triple agonist of SEQ ID NO: 35],7.5
4,H[Aib]QGTFTSDYSKYLCEKRQKEFVQWLLNGGPSSGAPPPSG (bridge 16-20) [Triple agonist of SEQ ID NO: 36],37.4
5,H[Aib]QGTFTSDYSKYLDECRQKEFVQWLLNGGPSSGAPPPSG (bridge 16-20) [Triple agonist of SEQ ID NO: 37],236
6,H[Aib]QGTFTSDYSKYLDGQHAQCFVAWLLAGGGPSSGAPPPS [Triple agonist of SEQ ID NO: 39],13.9
7,H[Aib]QGTFTSDKSKYLDERACQDFVQWLLDGGPSSGAPPPS [Triple agonist of SEQ ID NO: 40],75.2
8,H[Aib]QGTFTSDKSKYLDECAAQDFVQWLLDGGPSSGAPPPS [Triple agonist of SEQ ID NO: 41],34.3
9,Y[Aib]QGTFTSDYSKYLDEKRAKEFVQWLLDHHPSSGQPPPSC (bridge 16-20) [Triple agonist of SEQ ID NO: 42],33.9
10,Y[Aib]QGTFTSDYSKYLDEKRAKEFVQWLLDHHCSSGQPPPS (bridge 16-20) [Triple agonist of SEQ ID NO: 43],12.6
11,HGQGTFTSDCSKQLDGQAAQEFVAWLLAGGPSSGAPPPS [Triple agonist of SEQ ID NO: 44],1.3
12,H[Aib]QGTFTSDVSSYLLGQQQKEFIAWLVKGGGPSSGAPPPSC [Triple agonist of SEQ ID NO: 5],42.1
13,HGQGTFTSDCSKYMDGQAAQDFVAWLLAGGPSSGAPPPS [Triple agonist of SEQ ID NO: 45],6.6
14,HGQGTFTSDCSKYLDEQHAQEFVAWLLAGGPSSGAPPPS [Triple agonist of SEQ ID NO: 46],1.4
15,HGQGTFTSDCSKYLDGQRAQEFVAWLLAGGPSSGAPPPS [Triple agonist of SEQ ID NO: 47],2.4
